Results from patent US20220281951A1 (ACCELERON PHARMA, published 2022).

T1: Activin A (UniProt P08476 311-426)
T1 sequence (looked up): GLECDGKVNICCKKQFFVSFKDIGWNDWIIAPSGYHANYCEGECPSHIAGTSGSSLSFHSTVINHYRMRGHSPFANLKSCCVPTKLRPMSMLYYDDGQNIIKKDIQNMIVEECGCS

T2: GDF-11 (UniProt O95390 299-407)
T2 sequence (looked up): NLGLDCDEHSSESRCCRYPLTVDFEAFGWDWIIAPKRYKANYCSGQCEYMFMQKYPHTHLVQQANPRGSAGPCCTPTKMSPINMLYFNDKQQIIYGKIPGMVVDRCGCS

T3: GDF8 (UniProt O14793 267-375)
T3 construct: also called myostatin; Growth and Differentiation Factor-8
T3 sequence (looked up): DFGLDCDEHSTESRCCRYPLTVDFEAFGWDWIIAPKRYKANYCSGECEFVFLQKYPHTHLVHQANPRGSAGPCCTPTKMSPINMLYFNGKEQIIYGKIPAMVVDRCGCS

B1: ActRIIb-hFc (R64, 21-131) (Fc fusion)
chain: RGEAETRECIYYNANWELERTNQSGLERCEGEQDKRLHCYASWRNSSGTIELVKKGCWLDDFNCYDRQECVATEENPQVYFCCCEGNFCNERFTHLPEAGGPEVTYEPPPTGGGTHTCPPCPAPELLGGPSVFLFPPKPKDTLMISRTPEVTCVVVDVSHEDPEVKFNWYVDGVEVHNAKTKPREEQYNSTYRVVSVLTVLHQDWLNGKEYKCKVSNKALPVPIEKTISKAKGQPREPQVYTLPPSREEMTKNQVSLTCLVKGFYPSDIAVEWESNGQPENNYKTTPPVLDSDGSFFLYSKLTVDKSRWQQGNVFSCSVMHEALHNHYTQKSLSLSPGK
B2: ActRIIb-hFc (R64, 23-131) (Fc fusion)
chain: EAETRECIYYNANWELERTNQSGLERCEGEQDKRLHCYASWRNSSGTIELVKKGCWLDDFNCYDRQECVATEENPQVYFCCCEGNFCNERFTHLPEAGGPEVTYEPPPTGGGTHTCPPCPAPELLGGPSVFLFPPKPKDTLMISRTPEVTCVVVDVSHEDPEVKFNWYVDGVEVHNAKTKPREEQYNSTYRVVSVLTVLHQDWLNGKEYKCKVSNKALPVPIEKTISKAKGQPREPQVYTLPPSREEMTKNQVSLTCLVKGFYPSDIAVEWESNGQPENNYKTTPPVLDSDGSFFLYSKLTVDKSRWQQGNVFSCSVMHEALHNHYTQKSLSLSPGK
B3: ActRIIb-hFc (R64, 24-131) (Fc fusion)
chain: AETRECIYYNANWELERTNQSGLERCEGEQDKRLHCYASWRNSSGTIELVKKGCWLDDFNCYDRQECVATEENPQVYFCCCEGNFCNERFTHLPEAGGPEVTYEPPPTGGGTHTCPPCPAPELLGGPSVFLFPPKPKDTLMISRTPEVTCVVVDVSHEDPEVKFNWYVDGVEVHNAKTKPREEQYNSTYRVVSVLTVLHQDWLNGKEYKCKVSNKALPVPIEKTISKAKGQPREPQVYTLPPSREEMTKNQVSLTCLVKGFYPSDIAVEWESNGQPENNYKTTPPVLDSDGSFFLYSKLTVDKSRWQQGNVFSCSVMHEALHNHYTQKSLSLSPGK
B4: ActRIIb-hFc (R64, 22-131) (Fc fusion)
chain: GEAETRECIYYNANWELERTNQSGLERCEGEQDKRLHCYASWRNSSGTIELVKKGCWLDDFNCYDRQECVATEENPQVYFCCCEGNFCNERFTHLPEAGGPEVTYEPPPTGGGTHTCPPCPAPELLGGPSVFLFPPKPKDTLMISRTPEVTCVVVDVSHEDPEVKFNWYVDGVEVHNAKTKPREEQYNSTYRVVSVLTVLHQDWLNGKEYKCKVSNKALPVPIEKTISKAKGQPREPQVYTLPPSREEMTKNQVSLTCLVKGFYPSDIAVEWESNGQPENNYKTTPPVLDSDGSFFLYSKLTVDKSRWQQGNVFSCSVMHEALHNHYTQKSLSLSPGK
B5: ActRIIb-hFc (R64, 20-131) (Fc fusion)
chain: GRGEAETRECIYYNANWELERTNQSGLERCEGEQDKRLHCYASWRNSSGTIELVKKGCWLDDFNCYDRQECVATEENPQVYFCCCEGNFCNERFTHLPEAGGPEVTYEPPPTGGGTHTCPPCPAPELLGGPSVFLFPPKPKDTLMISRTPEVTCVVVDVSHEDPEVKFNWYVDGVEVHNAKTKPREEQYNSTYRVVSVLTVLHQDWLNGKEYKCKVSNKALPVPIEKTISKAKGQPREPQVYTLPPSREEMTKNQVSLTCLVKGFYPSDIAVEWESNGQPENNYKTTPPVLDSDGSFFLYSKLTVDKSRWQQGNVFSCSVMHEALHNHYTQKSLSLSPGK
B6: ActRIIb-hFc (R64, 20-128) (Fc fusion)
chain: GRGEAETRECIYYNANWELERTNQSGLERCEGEQDKRLHCYASWRNSSGTIELVKKGCWLDDFNCYDRQECVATEENPQVYFCCCEGNFCNERFTHLPEAGGPEVTYEPGGGTHTCPPCPAPELLGGPSVFLFPPKPKDTLMISRTPEVTCVVVDVSHEDPEVKFNWYVDGVEVHNAKTKPREEQYNSTYRVVSVLTVLHQDWLNGKEYKCKVSNKALPVPIEKTISKAKGQPREPQVYTLPPSREEMTKNQVSLTCLVKGFYPSDIAVEWESNGQPENNYKTTPPVLDSDGSFFLYSKLTVDKSRWQQGNVFSCSVMHEALHNHYTQKSLSLSPGK
B7: ActRIIb-hFc (R64, 20-132) (Fc fusion)
chain: GRGEAETRECIYYNANWELERTNQSGLERCEGEQDKRLHCYASWRNSSGTIELVKKGCWLDDFNCYDRQECVATEENPQVYFCCCEGNFCNERFTHLPEAGGPEVTYEPPPTAGGGTHTCPPCPAPELLGGPSVFLFPPKPKDTLMISRTPEVTCVVVDVSHEDPEVKFNWYVDGVEVHNAKTKPREEQYNSTYRVVSVLTVLHQDWLNGKEYKCKVSNKALPVPIEKTISKAKGQPREPQVYTLPPSREEMTKNQVSLTCLVKGFYPSDIAVEWESNGQPENNYKTTPPVLDSDGSFFLYSKLTVDKSRWQQGNVFSCSVMHEALHNHYTQKSLSLSPGK
B8: ActRIIb-hFc (R64, 20-134) (Fc fusion)
chain: GRGEAETRECIYYNANWELERTNQSGLERCEGEQDKRLHCYASWRNSSGTIELVKKGCWLDDFNCYDRQECVATEENPQVYFCCCEGNFCNERFTHLPEAGGPEVTYEPPPTAPTGGGTHTCPPCPAPELLGGPSVFLFPPKPKDTLMISRTPEVTCVVVDVSHEDPEVKFNWYVDGVEVHNAKTKPREEQYNSTYRVVSVLTVLHQDWLNGKEYKCKVSNKALPVPIEKTISKAKGQPREPQVYTLPPSREEMTKNQVSLTCLVKGFYPSDIAVEWESNGQPENNYKTTPPVLDSDGSFFLYSKLTVDKSRWQQGNVFSCSVMHEALHNHYTQKSLSLSPGK

Target: T1, Activin A
Assay: cell-based or functional assay

Row | IC50 (ng/mL), A-204 reporter gene assay, conditioned media [ng/mL] | Binder
1 | 325 | B1
2 | 43 | B2
3 | 105 | B3
4 | 100 | B4
5 | 201 | B5

Target: T2, GDF-11
Assay: cell-based or functional assay

Row | IC50 (ng/mL), A-204 reporter gene assay, conditioned media [ng/mL] | Binder
6 | 121 | B1
7 | 60 | B2
8 | 69 | B3
9 | 71 | B4
10 | 183 | B5

Target: T1, Activin A
Assay: cell-based or functional assay
Remark: another data set of the same source

Row | IC50 (ng/mL), A-204 reporter gene assay, conditioned media [ng/mL] | Binder
11 | 158 | B6
12 | 32 | B7
13 | 44 | B5

Target: T2, GDF-11
Assay: cell-based or functional assay
Remark: another data set of the same source

Row | IC50 (ng/mL), A-204 reporter gene assay, conditioned media [ng/mL] | Binder
14 | 130 | B6
15 | 87 | B7
16 | 120 | B5

Target: T3, GDF8
Assay: BiaCore SPR; ActRIIB-Fc captured by anti-hFc antibody, ligand injected
Experimental: The ActRIIB-Fc variants or wild-type protein were captured onto the system using an anti-hFc antibody. Ligands were injected and flowed over the captured receptor proteins.

Row | kon [M⁻¹ s⁻¹] | Binder
17 | 369000 | B8
